Numbering of substitutions follows the chain as printed. In names and notes the source's numbering stands. Several values for one entry are separate records, joined by “and”; a condition that tells them apart may be missing. Equal values may be shown once. Blank lines part the entries; values can stand above or below the molecule they belong to.
Experiments:
[1] = biological target: human NRP2 endogenously expressed on cell lines (human) (UniProt O60462); assay: flow cytometry on A549 WT cells
[2] = biological target: T1, human NRP2 variant 2 (NM_003872) over-expressed on Expi293-hNRP2 clonal cells (human, UniProt O60462 23-931); assay: flow cytometry on Expi293-hNRP2 cells, 0.05-100 nM, anti-human Fc detection
T1 sequence: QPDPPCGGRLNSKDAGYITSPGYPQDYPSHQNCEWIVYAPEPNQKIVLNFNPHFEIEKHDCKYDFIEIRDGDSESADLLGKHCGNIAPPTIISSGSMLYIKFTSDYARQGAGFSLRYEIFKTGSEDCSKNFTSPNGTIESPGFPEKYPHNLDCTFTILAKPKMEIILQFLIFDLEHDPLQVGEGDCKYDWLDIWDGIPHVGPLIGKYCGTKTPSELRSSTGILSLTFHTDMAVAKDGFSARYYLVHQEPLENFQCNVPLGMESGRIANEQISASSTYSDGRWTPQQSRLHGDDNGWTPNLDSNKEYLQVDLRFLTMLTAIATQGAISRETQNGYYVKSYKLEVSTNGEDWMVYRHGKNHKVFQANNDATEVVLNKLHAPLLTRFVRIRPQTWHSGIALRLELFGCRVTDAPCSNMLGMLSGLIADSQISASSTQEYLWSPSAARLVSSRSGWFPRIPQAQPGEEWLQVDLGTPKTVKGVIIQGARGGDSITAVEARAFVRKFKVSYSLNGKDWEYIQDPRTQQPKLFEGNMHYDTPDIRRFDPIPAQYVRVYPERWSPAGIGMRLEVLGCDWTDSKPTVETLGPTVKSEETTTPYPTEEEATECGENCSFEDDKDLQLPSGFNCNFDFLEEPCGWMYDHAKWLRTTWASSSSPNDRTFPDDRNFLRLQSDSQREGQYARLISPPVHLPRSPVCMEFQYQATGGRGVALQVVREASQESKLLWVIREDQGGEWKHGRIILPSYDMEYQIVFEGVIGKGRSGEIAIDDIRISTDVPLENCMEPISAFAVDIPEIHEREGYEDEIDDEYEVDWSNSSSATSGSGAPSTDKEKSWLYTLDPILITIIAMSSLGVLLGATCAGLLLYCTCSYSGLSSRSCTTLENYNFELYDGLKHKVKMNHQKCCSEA
Protocol: (§1) To assess the ability of the anti-NRP2 antibodies to displace the binding of VEGF-C, Semaphorin 3F and HRS polypeptides, flow cytometry was used. Binding of recombinant human VEGF-C (R&D Cat#9199-VC-025, untagged), Sema3F-Fc (R&D Cat#9878-S3-025, Fc chimera protein) or Sema3F-p95m (prepared In-house), Myc-tagged Sema3F-p95 R583A R586A-1359) to Expi293-hNRP2 cells over expressing human NRP2 were determined by immunostaining assay as described in Example 4. Studies were conducted with cells incubated with each of these proteins at 0.05 - 100 nM at 3-fold dilutions on ice for 1 hour. Cells were then washed and stained with secondary and/or detection antibodies as described previously. […] Sema3F-Fc was detected by a Cy3-conjugated goat anti-human Fc IgG (Jackson ImmunoResearch Cat#109165098). Sema3F-p95m was detected by an AF555-conjugated anti-Myc antibody (ThermoFisher Cat#MA1980A555).
(§2) Binding curves were fit and EC₅₀ values determined as described above. VEGF-C was determined to bind to Expi293-hNRP2 cells with an EC₅₀ of 0.6 nM. Sema3F-Fc was determined to bind to Expi293-hNRP2 cells with an EC₅₀ of ^{~}8.2 nM, and Sema3F-p95m bound to Expi293-hNRP2 cells with an with EC₅₀ of 5.7 nM.

[3] = biological target: T1, human NRP2 variant 2 (NM_003872) …; assay: flow cytometry on Expi293-hNRP2 cells, 0.05-100 nM, anti-Myc detection
Protocol: as §1, §2

[4] = biological target: T1, human NRP2 variant 2 (NM_003872) …; assay: flow cytometry on Expi293-hNRP2 cells, 0.05-100 nM, rabbit anti-VEGF-C detection
Protocol: as §1, §2

Fold change of a-NRP2 to Ctl (FC) [1]: 2.6 fold and 1.8 fold
Molecule: C9-AF647 Santa Cruz Biotech anti-NRP2 antibody

Fold change of a-NRP2 to Ctl (FC) [1]: 6 fold
Molecule: C9-PE Santa Cruz Biotech anti-NRP2 antibody

EC50 [2]: ~8.2 nM
B1: Human SEMA3F-Fc (R&D Systems #9878-S3) (Fc fusion, UniProt Q13275 19-779, looked up)
chain: SFPTQDHLPATPRVRLSFKELKATGTAHFFNFLLNTTDYRILLKDEDHDRMYVGSKDYVLSLDLHDINREPLIIHWAASPQRIEECVLSGKDVNGECGNFVRLIQPWNRTHLYVCGTGAYNPMCTYVNRGRRAQATPWTQTQAVRGRGSRATDGALRPMPTAPRQDYIFYLEPERLESGKGKCPYDPKLDTASALINEELYAGVYIDFMGTDAAIFRTLGKQTAMRTDQYNSRWLNDPSFIHAELIPDSAERNDDKLYFFFRERSAEAPQSPAVYARIGRICLNDDGGHCCLVNKWSTFLKARLVCSVPGEDGIETHFDELQDVFVQQTQDVRNPVIYAVFTSSGSVFRGSAVCVYSMADIRMVFNGPFAHKEGPNYQWMPFSGKMPYPRPGTCPGGTFTPSMKSTKDYPDEVINFMRSHPLMYQAVYPLQRRPLVVRTGAPYRLTTIAVDQVDAADGRYEVLFLGTDRGTVQKVIVLPKDDQELEELMLEEVEVFKDPAPVKTMTISSKRQQLYVASAVGVTHLSLHRCQAYGAACADCCLARDPYCAWDGQACSRYTASSKRRSRRQDVRHGNPIRQCRGFNSNANKNAVESVQYGVAGSAAFLECQPRSPQATVKWLFQRDPGDRRREIRAEDRFLRTEQGLLLRALQLSDRGLYSCTATENNFKHVVTRVQLHVLGRDAVHAALFPPLSMSAPPPPGAGPPTPPYQELAQLLAQPEVGLIHQYCQGYWRHVPPSPREAPGAPRSPEPQDQKKPRNRR
notes: Bought reagent; not shown: Fc of the bought chimera (detected with anti-human Fc)

EC50 [3]: 5.7 nM
B2: Sema3F-p95m (Myc-tagged Sema3F-p95 R583A R586A-1359) (ligand, UniProt Q13275 19-779, looked up)
chain: B1 chain with R565A, R568A
notes: not shown: Myc tag

EC50 [4]: 0.6 nM
B3: recombinant human VEGF-C (R&D Systems #9199-VC) (ligand, UniProt P49767 103-227, looked up)
chain: TEETIKFAAAHYNTEILKSIDNEWRKTQCMPREVCIDVGKEFGVATNTFFKPPCVSVYRCGGCCNSEGLQCMNTSTSYLSKTLFEITVPLSQGPKPVTISFANHTSCRCMSKLDVYRQVHSIIRR
notes: Bought reagent

Reference: patent publication US20230312730A1 (ATYR PHARMA, published 2023)
